# Measured values as given in paper PMC11446282.
# System: PP2A-B55α
# Experiment: Single alanine mutational scan, YFP-tagged interactors immunoprecipitated from HeLa cells, Western blot
# Assay type: binding, human
# Conditions: single alanine mutant of YFP-tagged AMOTL2
row,Molecule,Experimental % binding [%]
1,"AMOTL2 I34: AMOTL2, I34 to alanine (protein, UniProt Q9Y2J4 1-779, looked up, variant I34A) Angiomotin-like protein 2: MRTLEDSSGTVLHRLIQEQLRYGNLTETRTLLAAQQQALRGGAGTGGTGSPQASLEILAPEDSQVLQQATRQEPQGQEHQGGENHLAENTLYRLCPQPSKGEELPTYEEAKAHSQYYAAQQAGTRPHAGDRDPRGAPGGSRRQDEALRELRHGHVRSLSERLLQLSLERNGARAPSHMSSSHSFPQLARNQQGPPLRGPPAEGPESRGPPPQYPHVVLAHETTTAVTDPRYRARGSPHFQHAEVRILQAQVPPVFLQQQQQYQYLQQSQEHPPPPHPAALGHGPLSSLSPPAVEGPVSAQASSATSGSAHLAQMEAVLRENARLQRDNERLQRELESSAEKAGRIEKLESEIQRLSEAHESLTRASSKREALEKTMRNKMDSEMRRLQDFNRDLRERLESANRRLASKTQEAQAGSQDMVAKLLAQSYEQQQEQEKLEREMALLRGAIEDQRRRAELLEQALGNAQGRAARAEEELRKKQAYVEKVERLQQALGQLQAACEKREQLELRLRTRLEQELKALRAQQRQAGAPGGSSGSGGSPELSALRLSEQLREKEEQILALEADMTKWEQKYLEERAMRQFAMDAAATAAAQRDTTLIRHSPQPSPSSSFNEGLLTGGHRHQEMESRLKVLHAQILEKDAVIKVLQQRSRRDPGKAIQGSLRPAKSVPSVFAAAAAGTQGWQGLSSSERQTADAPARLTTDRAPTEEPVVTAPPAAHAKHGSRDGSTQTEGPPDSTSTCLPPEPDSLLGCSSSQRAASLDSVATSRVQDLSDMVEILI",15
2,"AMOTL2 Q35: AMOTL2, Q35 to alanine (protein, UniProt Q9Y2J4 1-779, looked up, variant Q35A) Angiomotin-like protein 2: MRTLEDSSGTVLHRLIQEQLRYGNLTETRTLLAIAQQALRGGAGTGGTGSPQASLEILAPEDSQVLQQATRQEPQGQEHQGGENHLAENTLYRLCPQPSKGEELPTYEEAKAHSQYYAAQQAGTRPHAGDRDPRGAPGGSRRQDEALRELRHGHVRSLSERLLQLSLERNGARAPSHMSSSHSFPQLARNQQGPPLRGPPAEGPESRGPPPQYPHVVLAHETTTAVTDPRYRARGSPHFQHAEVRILQAQVPPVFLQQQQQYQYLQQSQEHPPPPHPAALGHGPLSSLSPPAVEGPVSAQASSATSGSAHLAQMEAVLRENARLQRDNERLQRELESSAEKAGRIEKLESEIQRLSEAHESLTRASSKREALEKTMRNKMDSEMRRLQDFNRDLRERLESANRRLASKTQEAQAGSQDMVAKLLAQSYEQQQEQEKLEREMALLRGAIEDQRRRAELLEQALGNAQGRAARAEEELRKKQAYVEKVERLQQALGQLQAACEKREQLELRLRTRLEQELKALRAQQRQAGAPGGSSGSGGSPELSALRLSEQLREKEEQILALEADMTKWEQKYLEERAMRQFAMDAAATAAAQRDTTLIRHSPQPSPSSSFNEGLLTGGHRHQEMESRLKVLHAQILEKDAVIKVLQQRSRRDPGKAIQGSLRPAKSVPSVFAAAAAGTQGWQGLSSSERQTADAPARLTTDRAPTEEPVVTAPPAAHAKHGSRDGSTQTEGPPDSTSTCLPPEPDSLLGCSSSQRAASLDSVATSRVQDLSDMVEILI",61
3,"AMOTL2 Q36: AMOTL2, Q36 to alanine (protein, UniProt Q9Y2J4 1-779, looked up, variant Q36A) Angiomotin-like protein 2: MRTLEDSSGTVLHRLIQEQLRYGNLTETRTLLAIQAQALRGGAGTGGTGSPQASLEILAPEDSQVLQQATRQEPQGQEHQGGENHLAENTLYRLCPQPSKGEELPTYEEAKAHSQYYAAQQAGTRPHAGDRDPRGAPGGSRRQDEALRELRHGHVRSLSERLLQLSLERNGARAPSHMSSSHSFPQLARNQQGPPLRGPPAEGPESRGPPPQYPHVVLAHETTTAVTDPRYRARGSPHFQHAEVRILQAQVPPVFLQQQQQYQYLQQSQEHPPPPHPAALGHGPLSSLSPPAVEGPVSAQASSATSGSAHLAQMEAVLRENARLQRDNERLQRELESSAEKAGRIEKLESEIQRLSEAHESLTRASSKREALEKTMRNKMDSEMRRLQDFNRDLRERLESANRRLASKTQEAQAGSQDMVAKLLAQSYEQQQEQEKLEREMALLRGAIEDQRRRAELLEQALGNAQGRAARAEEELRKKQAYVEKVERLQQALGQLQAACEKREQLELRLRTRLEQELKALRAQQRQAGAPGGSSGSGGSPELSALRLSEQLREKEEQILALEADMTKWEQKYLEERAMRQFAMDAAATAAAQRDTTLIRHSPQPSPSSSFNEGLLTGGHRHQEMESRLKVLHAQILEKDAVIKVLQQRSRRDPGKAIQGSLRPAKSVPSVFAAAAAGTQGWQGLSSSERQTADAPARLTTDRAPTEEPVVTAPPAAHAKHGSRDGSTQTEGPPDSTSTCLPPEPDSLLGCSSSQRAASLDSVATSRVQDLSDMVEILI",76
4,"AMOTL2 Q37: AMOTL2, Q37 to alanine (protein, UniProt Q9Y2J4 1-779, looked up, variant Q37A) Angiomotin-like protein 2: MRTLEDSSGTVLHRLIQEQLRYGNLTETRTLLAIQQAALRGGAGTGGTGSPQASLEILAPEDSQVLQQATRQEPQGQEHQGGENHLAENTLYRLCPQPSKGEELPTYEEAKAHSQYYAAQQAGTRPHAGDRDPRGAPGGSRRQDEALRELRHGHVRSLSERLLQLSLERNGARAPSHMSSSHSFPQLARNQQGPPLRGPPAEGPESRGPPPQYPHVVLAHETTTAVTDPRYRARGSPHFQHAEVRILQAQVPPVFLQQQQQYQYLQQSQEHPPPPHPAALGHGPLSSLSPPAVEGPVSAQASSATSGSAHLAQMEAVLRENARLQRDNERLQRELESSAEKAGRIEKLESEIQRLSEAHESLTRASSKREALEKTMRNKMDSEMRRLQDFNRDLRERLESANRRLASKTQEAQAGSQDMVAKLLAQSYEQQQEQEKLEREMALLRGAIEDQRRRAELLEQALGNAQGRAARAEEELRKKQAYVEKVERLQQALGQLQAACEKREQLELRLRTRLEQELKALRAQQRQAGAPGGSSGSGGSPELSALRLSEQLREKEEQILALEADMTKWEQKYLEERAMRQFAMDAAATAAAQRDTTLIRHSPQPSPSSSFNEGLLTGGHRHQEMESRLKVLHAQILEKDAVIKVLQQRSRRDPGKAIQGSLRPAKSVPSVFAAAAAGTQGWQGLSSSERQTADAPARLTTDRAPTEEPVVTAPPAAHAKHGSRDGSTQTEGPPDSTSTCLPPEPDSLLGCSSSQRAASLDSVATSRVQDLSDMVEILI",44
5,"AMOTL2 T10: AMOTL2, T10 to alanine (protein, UniProt Q9Y2J4 1-779, looked up, variant T10A) Angiomotin-like protein 2: MRTLEDSSGAVLHRLIQEQLRYGNLTETRTLLAIQQQALRGGAGTGGTGSPQASLEILAPEDSQVLQQATRQEPQGQEHQGGENHLAENTLYRLCPQPSKGEELPTYEEAKAHSQYYAAQQAGTRPHAGDRDPRGAPGGSRRQDEALRELRHGHVRSLSERLLQLSLERNGARAPSHMSSSHSFPQLARNQQGPPLRGPPAEGPESRGPPPQYPHVVLAHETTTAVTDPRYRARGSPHFQHAEVRILQAQVPPVFLQQQQQYQYLQQSQEHPPPPHPAALGHGPLSSLSPPAVEGPVSAQASSATSGSAHLAQMEAVLRENARLQRDNERLQRELESSAEKAGRIEKLESEIQRLSEAHESLTRASSKREALEKTMRNKMDSEMRRLQDFNRDLRERLESANRRLASKTQEAQAGSQDMVAKLLAQSYEQQQEQEKLEREMALLRGAIEDQRRRAELLEQALGNAQGRAARAEEELRKKQAYVEKVERLQQALGQLQAACEKREQLELRLRTRLEQELKALRAQQRQAGAPGGSSGSGGSPELSALRLSEQLREKEEQILALEADMTKWEQKYLEERAMRQFAMDAAATAAAQRDTTLIRHSPQPSPSSSFNEGLLTGGHRHQEMESRLKVLHAQILEKDAVIKVLQQRSRRDPGKAIQGSLRPAKSVPSVFAAAAAGTQGWQGLSSSERQTADAPARLTTDRAPTEEPVVTAPPAAHAKHGSRDGSTQTEGPPDSTSTCLPPEPDSLLGCSSSQRAASLDSVATSRVQDLSDMVEILI",104
6,"AMOTL2 V11: AMOTL2, V11 to alanine (protein, UniProt Q9Y2J4 1-779, looked up, variant V11A) Angiomotin-like protein 2: MRTLEDSSGTALHRLIQEQLRYGNLTETRTLLAIQQQALRGGAGTGGTGSPQASLEILAPEDSQVLQQATRQEPQGQEHQGGENHLAENTLYRLCPQPSKGEELPTYEEAKAHSQYYAAQQAGTRPHAGDRDPRGAPGGSRRQDEALRELRHGHVRSLSERLLQLSLERNGARAPSHMSSSHSFPQLARNQQGPPLRGPPAEGPESRGPPPQYPHVVLAHETTTAVTDPRYRARGSPHFQHAEVRILQAQVPPVFLQQQQQYQYLQQSQEHPPPPHPAALGHGPLSSLSPPAVEGPVSAQASSATSGSAHLAQMEAVLRENARLQRDNERLQRELESSAEKAGRIEKLESEIQRLSEAHESLTRASSKREALEKTMRNKMDSEMRRLQDFNRDLRERLESANRRLASKTQEAQAGSQDMVAKLLAQSYEQQQEQEKLEREMALLRGAIEDQRRRAELLEQALGNAQGRAARAEEELRKKQAYVEKVERLQQALGQLQAACEKREQLELRLRTRLEQELKALRAQQRQAGAPGGSSGSGGSPELSALRLSEQLREKEEQILALEADMTKWEQKYLEERAMRQFAMDAAATAAAQRDTTLIRHSPQPSPSSSFNEGLLTGGHRHQEMESRLKVLHAQILEKDAVIKVLQQRSRRDPGKAIQGSLRPAKSVPSVFAAAAAGTQGWQGLSSSERQTADAPARLTTDRAPTEEPVVTAPPAAHAKHGSRDGSTQTEGPPDSTSTCLPPEPDSLLGCSSSQRAASLDSVATSRVQDLSDMVEILI",114
7,"AMOTL2 L12: AMOTL2, L12 to alanine (protein, UniProt Q9Y2J4 1-779, looked up, variant L12A) Angiomotin-like protein 2: MRTLEDSSGTVAHRLIQEQLRYGNLTETRTLLAIQQQALRGGAGTGGTGSPQASLEILAPEDSQVLQQATRQEPQGQEHQGGENHLAENTLYRLCPQPSKGEELPTYEEAKAHSQYYAAQQAGTRPHAGDRDPRGAPGGSRRQDEALRELRHGHVRSLSERLLQLSLERNGARAPSHMSSSHSFPQLARNQQGPPLRGPPAEGPESRGPPPQYPHVVLAHETTTAVTDPRYRARGSPHFQHAEVRILQAQVPPVFLQQQQQYQYLQQSQEHPPPPHPAALGHGPLSSLSPPAVEGPVSAQASSATSGSAHLAQMEAVLRENARLQRDNERLQRELESSAEKAGRIEKLESEIQRLSEAHESLTRASSKREALEKTMRNKMDSEMRRLQDFNRDLRERLESANRRLASKTQEAQAGSQDMVAKLLAQSYEQQQEQEKLEREMALLRGAIEDQRRRAELLEQALGNAQGRAARAEEELRKKQAYVEKVERLQQALGQLQAACEKREQLELRLRTRLEQELKALRAQQRQAGAPGGSSGSGGSPELSALRLSEQLREKEEQILALEADMTKWEQKYLEERAMRQFAMDAAATAAAQRDTTLIRHSPQPSPSSSFNEGLLTGGHRHQEMESRLKVLHAQILEKDAVIKVLQQRSRRDPGKAIQGSLRPAKSVPSVFAAAAAGTQGWQGLSSSERQTADAPARLTTDRAPTEEPVVTAPPAAHAKHGSRDGSTQTEGPPDSTSTCLPPEPDSLLGCSSSQRAASLDSVATSRVQDLSDMVEILI",88
